According to US20110097326A1 (IRM, published 2011):
Positions count from the first letter of the chain named. “And” between values parts separate entries of the source, which are not always exact repeats. Equal entries are not always repeated.

B1: A10F18.2 IgG (antibody, V domains shown)
VH: QVQLQQSGAELVRPGASVTLSCKASGYTFTDYEMHWVKQTPVHGLEWIGTIDPETAGTAYNQKFKGKAILTAGKSSSTAYMELRSLTSEDSAVYYCTGVTTWFAYWGQGTLVTVSA
VL: DVVMTQTPLSLPVSLGDQASISCRSSQSLVHSNGNTYLHWYLQKPGQSPNLLIYKVSNRFSGVPDRFSGSGSGTDFTLKISRVEAEDLGVYFCSQGTHVPYTFGGGTKLEIKR
B2: NVP-LFC325 (antibody, human IgG1, V domains shown)
VH: QVQLVQSGAEVKKPGASVKVSCKASGYTFTAYDMHWVRQAPGQGLEWMGWIDPNSGGTRYAQKFQGRVTMTRDTSISTAYMELSRLTSDDTAVYYCTGVTTWFAYWGQGTLVTVSS
VL: DIVMTQTPLSLPVTLGQPASISCRSSQSLLHSNGNTYLNWYQQTPGQPPRLLIYKISNRFSGVPDRFSGSGAGTDFTLKISRVEAEDVGVYYCMQGTHVPYTFGQGKLEIK
notes: IgG with human IgG1 constant region and human kappa constant region, from transiently transfected CHO cells; also called TR127 Vh & TR119 Vk
B3: Fab TR135-8 (Fab, V domains shown)
VH: B2 VH
VL: MDVVMTQSPLSLPVTLGQPASISCRSSQSLVHSNGNTYLNWYQQKPGQPPRLLIYKISNRFSGVPDRFSGSGAGTDFTLKISRVEAEDVGVYYCMQGTHEPYTFGQGKLEIK
notes: Fab with human V-segments, expressed in E. coli; detected with anti-human kappa
B4: Fab TR139-2 (Fab, V domains shown)
VH: B2 VH
VL: B3 VL with N40S, Y42L, K45R
notes: Fab with human V-segments, expressed in E. coli
B5: NVP-LFD254 (antibody, human IgG1, V domains shown)
VH: B2 VH with N54R, G57D, R59S, A61K, S84H, T87R
VL: B2 VL
notes: IgG with human IgG1 constant region and human kappa constant region, from transiently transfected CHO cells; also called TR143 Vh & TR119 Vk
B6: NVP-LFC327 (antibody, human IgG1, V domains shown)
VH: B2 VH
VL: B2 VL with T7S, L30V, T44K, V99E
notes: IgG with human IgG1 constant region and human kappa constant region, from transiently transfected CHO cells; also called TR127 Vh & TR129 Vk
B7: NVP-LFD253 (antibody, human IgG1, V domains shown)
VH: B2 VH
VL: B2 VL with L30V, N39S, Y41L, T44R, V99E
notes: IgG with human IgG1 constant region and human kappa constant region, from transiently transfected CHO cells; also called TR127 Vh & TR137 Vk
B8: Fab TR144-1 (Fab, V domains shown)
VH: B2 VH with N54R, G57D, R59S, A61K, S84H, T87R
VL: B3 VL
notes: as for B4
B9: Fab TR151-1 (Fab, V domains shown)
VH: B2 VH with T97A, T101S
VL: B3 VL with N40S, Y42L, K45R
notes: as for B4
B10: Fab TR134-4 (Fab, V domains shown)
VH: B2 VH
VL: B3 VL with V31L, K45T
notes: as for B4

How the values were obtained:
[1] = biological target: T1, recombinant Fc-TrkB antigen (human) (human, UniProt Q16620 32-430, limits assumed); experiment: BLI (ForteBio Octet), biotinylated Fc-TrkB on streptavidin sensors, IgG at 1E-8 M
T1 construct: Biotinylated for the ForteBio assays; also called Fc-hTrkB; human Fc-TrkB; not shown: Fc part
Method: (§1) The binding kinetics of IgGs and Fab fragments were analyzed using a ForteBio Octet biosensor. Recombinant Fc-TrkB antigen was biotinylated using the EZ-link biotinylation kit (Pierce) according to the manufacturer's methods. The antigen was then coupled to streptavidin-coated sensors (ForteBio). Fab binding was monitored in real time using bio-layer interferometry analysis and software provided by the manufacturer. Affinities were calculated from the determined association and dissociation constants.
IgGs with human V-segments were also prepared from transient transfections of CHO cells. IgG preparations were purified and further characterized by kinetic comparison with the reference IgG A10F18.2. Binding kinetics for two of the IgGs with human V-segments were analyzed using a ForteBio Octet system for real-time label-free monitoring of protein-protein interactions.

[2] = biological target: T1, recombinant Fc-TrkB antigen (human); experiment: blocking ELISA on coated Fc-TrkB; blocked molecule: Fab TR3-1 at 50 nM (two replicate series), detected with anti-human kappa-HRP [upper panel]
[3] = biological target: T1, recombinant Fc-TrkB antigen (human); experiment: blocking ELISA on coated Fc-TrkB; blocked molecule: Fab TR151-1 at 50 nM, detected with anti-human kappa-HRP [upper panel]
[4] = biological target: T1, recombinant Fc-TrkB antigen (human); experiment: SPR (Biacore S51), Fc-hTrkB amine-coupled to CM-5 chip, IgG in flow, global 1:1 Langmuir fit
Method: Binding studies on the improved antibodies were performed by immobilizing Fc-hTrkB onto a Series S CM-5 Biacore sensor chip (certified) (Biacore #BR-1005-30). Covalent binding of the Fc-fusion protein was done with the ‘Amine Coupling Kit’ (Biacore #BR-1000-50). The Fc-Fusion protein was attached to the EDC-activated dextran surface at 5 μg/ml in 10 mM sodium acetate, pH 4.5 (Biacore #BR-1003-50) at a flow rate of 10 μL/min
A range of concentrations of improved antibodies were flowed over the Fc-TrkB captured chip in PBS plus 100 mM NaCl, 0.005% P20 (Biacore #BR-1000-54). The resulting sensorgrams were analyzed using the Biacore S51 Evaluation Software. Data from all concentrations was fitted globally to a 1:1 Langmuir model.
Although this antibody is bivalent, the binding was treated as a 1:1 event.

[5] = biological target: TrkB on rat intestinal epithelial (RIE)-TrkB cells; experiment: cell-based or functional assay
[6] = biological target: T2, human TrkC-Fc fusion protein (human, UniProt Q16288 32-429, limits assumed); experiment: ELISA on Trk-hFc fusion proteins, goat anti-human Fab-HRP detection [panel C]
T2 construct: not shown: Fc part
Method: (§2) FIG. 9A-D illustrate ELISA assays showing specific binding of NVP-LFD253, NVP-LFD254, NVP-LFC325 and NVP-LFC327 to human TrkB-Fc fusion protein but not to human […] or TrkC-Fc fusion proteins. Purified IgG at 2 μg/ml was evaluated for specificity by examining its interaction with three different Trk family members (TrkA, TrkB and TrkC). Secondary Ab are replicates that were blocked and treated with only the goat-anti-human Fab-HRP detection Ab.
(§3) IgG with human V-segments (e.g., NVP-LFD253, NVP-LFD254, NVP-LFC325, and NVP-LFC327) bind specifically to TrkB but not to TrkA or TrkC. Purified IgG antibodies at 2 μg/ml were evaluated for specificity by examining its interaction with three different Trk family members (TrkA, TrkB and TrkC). Secondary Ab are replicates that were blocked and treated with only the goat-anti-human Fab-HRP detection Ab. As shown in FIG. 9A-D, none of LFD253, LFD254, LFC325 or LFC327 bind to either of these related Trk family receptors.

[7] = biological target: T3, TrkA-Fc fusion protein (human, UniProt P04629-2 34-407, limits assumed); experiment: as above
T3 construct: not shown: Fc part
Method: as §2, §3

[8] = biological target: T1, recombinant Fc-TrkB antigen (human); experiment: BLI (ForteBio Octet), biotinylated Fc-TrkB on streptavidin sensors, Fab at 1E-7 M
Method: as §1
(§4) Fabs with human V-segments were isolated from colony-lift binding assays and confirmed by antigen-binding ELISA. The Fab clones showing strong positive signals in antigen-binding ELISA were purified and further characterized by kinetic comparison with the reference Fab TR3-1. Binding kinetics were analyzed using a ForteBio Octet system for real-time label-free monitoring of protein-protein interactions.

[9] = biological target: T1, recombinant Fc-TrkB antigen (human); experiment: as above; remark: listed apart in the source
Method: as §1, §4

[10] = biological target: T2, human TrkC-Fc fusion protein; experiment: ELISA on Trk-hFc fusion proteins, goat anti-human Fab-HRP detection [panel B]
Method: as §2, §3

[11] = biological target: T3, TrkA-Fc fusion protein; experiment: as above
Method: as §2, §3

[12] = biological target: T2, human TrkC-Fc fusion protein; experiment: ELISA on Trk-hFc fusion proteins, goat anti-human Fab-HRP detection [panel D]
Method: as §2, §3

[13] = biological target: T3, TrkA-Fc fusion protein; experiment: as above
Method: as §2, §3

[14] = biological target: T2, human TrkC-Fc fusion protein; experiment: ELISA on Trk-hFc fusion proteins, goat anti-human Fab-HRP detection [panel A]
Method: as §2, §3

[15] = biological target: T3, TrkA-Fc fusion protein; experiment: as above
Method: as §2, §3

| Binder | Kd [1] | koff [1] | kon [1] | Kd [4] [nM] | koff [4] [s⁻¹] | kon [4] [M⁻¹ s⁻¹] | EC50, anoikis assay on RIE-TrkB cells [5] | Kd [8] [nM] | koff [8] [s⁻¹] | kon [8] [M⁻¹ s⁻¹] | Kd [9] [nM] | koff [9] [s⁻¹] | kon [9] [M⁻¹ s⁻¹] | further results |
| --- | --- | --- | --- | --- | --- | --- | --- | --- | --- | --- | --- | --- | --- | --- |
| B1 | 0.0379 nM and 0.0477 nM | 1.44e-05 s⁻¹ and 1.89e-05 s⁻¹ | 379000 M⁻¹ s⁻¹ and 396000 M⁻¹ s⁻¹ | – | – | – | – | – | – | – | – | – | – | IC50 (read off the curve) [2]: ~6 nM; IC50 (read off the curve) [3]: ~5 nM |
| B2 | 0.0335 nM | 1.52e-05 s⁻¹ | 453000 M⁻¹ s⁻¹ | 0.114 | 4.85e-05 | ~425000 | 41.8 ng/ml and 280 pM | – | – | – | – | – | – | binding result [6]: no binding (tested: 2 ug/ml); binding result [7]: no binding (tested: 2 ug/ml) |
| B3 | – | – | – | – | – | – | – | 32.3 | 0.00439 | 136000 | 31.9 | 0.00458 | 144000 | – |
| B4 | – | – | – | – | – | – | – | 15.1 | 0.00317 | 211000 | 14.2 | 0.00334 | 235000 | – |
| B5 | – | – | – | 0.117 | 1.94e-05 | 166000 | 24 ng/ml and 160 pM | – | – | – | – | – | – | binding result [10]: no binding (tested: 2 ug/ml); binding result [11]: no binding (tested: 2 ug/ml) |
| B6 | 0.0197 nM | 7.9e-06 s⁻¹ | 401000 M⁻¹ s⁻¹ | 0.146 | 5.76e-05 | 393000 | 26.9 ng/ml and 180 pM | – | – | – | – | – | – | binding result [12]: no binding (tested: 2 ug/ml); binding result [13]: no binding (tested: 2 ug/ml) |
| B7 | – | – | – | 0.165 | 3.25e-05 | 197000 | 4.1 ng/ml and 28 pM | – | – | – | – | – | – | binding result [14]: no binding (tested: 2 ug/ml); binding result [15]: no binding (tested: 2 ug/ml) |
| B8 | – | – | – | – | – | – | – | 31.1 | 0.00392 | 126000 | 29.7 | 0.00366 | 123000 | – |
| B9 | – | – | – | – | – | – | – | 18.6 | 0.00395 | 213000 | – | – | – | – |
| B10 | – | – | – | – | – | – | – | – | – | – | 35.6 | 0.00422 | 118000 | – |
